How the values were obtained:
[1] = target: T1, human LAG-3 expressed on NSO cells (human, UniProt P18627 29-525); assay: FACS saturation binding to NSO cells expressing LAG-3; SM; SD 0.3045
T1 sequence: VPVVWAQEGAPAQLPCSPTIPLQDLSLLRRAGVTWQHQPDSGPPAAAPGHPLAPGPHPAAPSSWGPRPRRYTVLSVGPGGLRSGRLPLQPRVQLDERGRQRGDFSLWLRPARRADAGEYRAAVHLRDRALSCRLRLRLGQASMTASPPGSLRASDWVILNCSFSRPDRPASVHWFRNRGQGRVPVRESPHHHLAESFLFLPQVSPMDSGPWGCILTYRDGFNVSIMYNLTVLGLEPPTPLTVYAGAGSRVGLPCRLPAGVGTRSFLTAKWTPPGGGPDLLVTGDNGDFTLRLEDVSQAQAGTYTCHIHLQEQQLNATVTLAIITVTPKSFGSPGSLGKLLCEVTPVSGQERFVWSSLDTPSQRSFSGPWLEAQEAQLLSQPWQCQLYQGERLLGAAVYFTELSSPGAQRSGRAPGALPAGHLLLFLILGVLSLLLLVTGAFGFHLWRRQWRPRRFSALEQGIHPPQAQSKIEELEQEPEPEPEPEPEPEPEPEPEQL

[2] = target: T2, biotinylated-soluble human LAG-3-Fc fusion protein (human, UniProt P18627 23-450, biotinylated (site not stated)); assay: FACS: inhibition of shLAG-3-Fc binding to MHC II on Daudi cells (column head prints EC50); SM; SD 3.3552
T2 construct: whole entry named; also called shLAG-3; shLAG-3-Fc; not shown: Fc
T2 sequence: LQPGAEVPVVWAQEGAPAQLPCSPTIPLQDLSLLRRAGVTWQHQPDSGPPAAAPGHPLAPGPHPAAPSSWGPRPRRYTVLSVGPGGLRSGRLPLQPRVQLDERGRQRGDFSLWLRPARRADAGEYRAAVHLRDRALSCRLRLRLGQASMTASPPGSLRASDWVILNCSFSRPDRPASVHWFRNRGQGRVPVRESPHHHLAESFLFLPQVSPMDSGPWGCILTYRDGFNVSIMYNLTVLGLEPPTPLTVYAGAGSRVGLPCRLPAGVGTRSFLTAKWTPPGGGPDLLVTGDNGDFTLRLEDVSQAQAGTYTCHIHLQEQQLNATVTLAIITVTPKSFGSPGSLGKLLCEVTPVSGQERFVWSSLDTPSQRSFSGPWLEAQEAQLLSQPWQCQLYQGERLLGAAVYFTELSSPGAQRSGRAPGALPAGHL

[3] = target: T3, human PD-1 expressed on the surface of cells (NSO cells expressing human PD-1; MNFAT-luc2/PD-1 Jurkat cells) (human, UniProt Q15116 21-288); assay: FACS: inhibition of sPD-L2 binding to PD-1 on NSO cells; SM; SD 0.7891
T3 construct: also called cell surface PD-1; PDCD1 transfected NSO cells expressing PD-1
T3 sequence (Q15116 21-288): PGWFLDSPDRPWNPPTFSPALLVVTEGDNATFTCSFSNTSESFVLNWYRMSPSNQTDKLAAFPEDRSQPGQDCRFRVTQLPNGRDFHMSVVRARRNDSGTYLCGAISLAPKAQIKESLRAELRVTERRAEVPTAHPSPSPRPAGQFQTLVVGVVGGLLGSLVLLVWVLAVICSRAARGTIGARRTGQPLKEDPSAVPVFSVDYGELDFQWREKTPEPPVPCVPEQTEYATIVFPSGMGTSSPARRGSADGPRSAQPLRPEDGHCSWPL

[4] = target: T3, human PD-1 expressed on the surface of …; assay: FACS saturation binding to NSO cells expressing PD-1; SM; SD 0.6227
[5] = target: T3, human PD-1 expressed on the surface of …; assay: FACS: inhibition of sPD-L1 binding to PD-1 on NSO cells; SM; SD 0.3581
[6] = target: T2, biotinylated-soluble human LAG-3-Fc …; assay: FACS: inhibition of shLAG-3-Fc binding to MHC II on Daudi cells (column head prints EC50); SM; SD 0.1549
[7] = target: T3, human PD-1 expressed on the surface of …; assay: FACS: inhibition of sPD-L2 binding to PD-1 on NSO cells; SM; SD 0.3125
[8] = target: T1, human LAG-3 expressed on NSO cells; assay: FACS saturation binding to NSO cells expressing LAG-3; SM; SD 0.0547
[9] = target: T3, human PD-1 expressed on the surface of …; assay: FACS saturation binding to NSO cells expressing PD-1; SM; SD 0.4890
[10] = target: T3, human PD-1 expressed on the surface of …; assay: FACS: inhibition of sPD-L1 binding to PD-1 on NSO cells; SM; SD 0.1302
[11] = target: T2, biotinylated-soluble human LAG-3-Fc …; assay: FACS: inhibition of shLAG-3-Fc binding to MHC II on Daudi cells (column head prints EC50); SM; SD 4.9817
[12] = target: T1, human LAG-3 expressed on NSO cells; assay: FACS saturation binding to NSO cells expressing LAG-3; single experiment
[13] = target: T3, human PD-1 expressed on the surface of …; assay: FACS saturation binding to NSO cells expressing PD-1; single experiment
[14] = target: T3, human PD-1 expressed on the surface of …; assay: FACS: inhibition of sPD-L1 binding to PD-1 on NSO cells; SM; SD 0.1018
[15] = target: T3, human PD-1 expressed on the surface of …; assay: FACS: inhibition of sPD-L2 binding to PD-1 on NSO cells; SM; SD 3.6847

B1: DART G (bispecific antibody, human IgG1, kappa, L234A L235A)
chain 1: QVQLVQSGAEVKKPGASVKVSCKASGYTFTNYGMNWVRQAPGQGLEWMGWINTYTGESTYADDFEGRFVFSMDTSASTAYLQISSLKAEDTAVYYCARESLYDYYSMDYWGQGTTVTVSSASTKGPSVFPLAPSSKSTSGGTAALGCLVKDYFPEPVTVSWNSGALTSGVHTFPAVLQSSGLYSLSSVVTVPSSSLGTQTYICNVNHKPSNTKVDKRVEPKSCDKTHTCPPCPAPEAAGGPSVFLFPPKPKDTLYITREPEVTCVVVDVSHEDPEVKFNWYVDGVEVHNAKTKPREEQYNSTYRVVSVLTVLHQDWLNGKEYKCKVSNKALPAPIEKTISKAKGQPREPQVYTLPPSREEMTKNQVSLSCAVKGFYPSDIAVEWESNGQPENNYKTTPPVLDSDGSFFLVSKLTVDKSRWQQGNVFSCSVMHEALHAKYTQKSLSLSPG
chain 2: DIVMTQTPLSLSVTPGQPASISCKSSQSLLHSDAKTYLNWLLQKPGQPPERLIYLVSELDSGVPDRFSGSGSGTDFTLKISRVEAEDVGVYYCWQGTHFPYTFGGGTKVEIKRTVAAPSVFIFPPSDEQLKSGTASVVCLLNNFYPREAKVQWKVDNALQSGNSQESVTEQDSKDSTYSLSSTLTLSKADYEKHKVYACEVTHQGLSSPVTKSFNRGEC
chain 3: QVQLVQSGAEVKKPGASVKVSCKASGYTFTNYGMNWVRQAPGQGLEWMGWINTYTGESTYADDFEGRFVFSMDTSASTAYLQISSLKAEDTAVYYCARESLYDYYSMDYWGQGTTVTVSSASTKGPSVFPLAPSSKSTSGGTAALGCLVKDYFPEPVTVSWNSGALTSGVHTFPAVLQSSGLYSLSSVVTVPSSSLGTQTYICNVNHKPSNTKVDKRVEPKSCDKTHTCPPCPAPEAAGGPSVFLFPPKPKDTLYITREPEVTCVVVDVSHEDPEVKFNWYVDGVEVHNAKTKPREEQYNSTYRVVSVLTVLHQDWLNGKEYKCKVSNKALPAPIEKTISKAKGQPREPQVYTLPPSREEMTKNQVSLWCLVKGFYPSDIAVEWESNGQPENNYKTTPPVLDSDGSFFLYSKLTVDKSRWQQGNVFSCSVMHEALHNHYTQKSLSLSPGGGGSGGGSGGGEIVLTQSPATLSLSPGERATLSCRASESVDNYGMSFMNWFQQKPGQPPKLLIHAASNQGSGVPSRFSGSGSGTDFTLTISSLEPEDFAVYFCQQSKEVPYTFGGGTKVEIKGGGSGGGGQVQLVQSGAEVKKPGASVKVSCKASGYSFTSYWMNWVRQAPGQGLEWIGVIHPSDSETWLDQKFKDRVTITVDKSTSTAYMELSSLRSEDTAVYYCAREHYGTSPFAYWGQGTLVTVSSGGCGGGEVAALEKEVAALEKEVAALEKEVAALEK
chain 4: EIVLTQSPATLSLSPGERATLSCRASESVDNYGMSFMNWFQQKPGQPPKLLIHAASNQGSGVPSRFSGSGSGTDFTLTISSLEPEDFAVYFCQQSKEVPYTFGGGTKVEIKGGGSGGGGQVQLVQSGAEVKKPGASVKVSCKASGYSFTSYWMNWVRQAPGQGLEWIGVIHPSDSETWLDQKFKDRVTITVDKSTSTAYMELSSLRSEDTAVYYCAREHYGTSPFAYWGQGTLVTVSSGGCGGGKVAALKEKVAALKEKVAALKEKVAALKE
EC50 [1]: 0.94 µM | IC50 [2]: 2.06 µM | IC50 [3]: 2.55 µM | EC50 [4]: 1.15 µM | IC50 [5]: 1.6 µM

B2: DART I (bispecific antibody, human IgG4 S228P)
chain 1: DIQMTQSPSSLSASVGDRVTITCRASQDVSSVVAWYQQKPGKAPKLLIYSASYRYTGVPSRFSGSGSGTDFTLTISSLQPEDFATYYCQQHYSTPWTFGGGTKLEIKGGGSGGGGQVQLVQSGAEVKKPGASVKVSCKASGYSFTSYWMNWVRQAPGQGLEWIGVIHPSDSETWLDQKFKDRVTITVDKSTSTAYMELSSLRSEDTAVYYCAREHYGTSPFAYWGQGTLVTVSSGGCGGGEVAACEKEVAALEKEVAALEKEVAALEKESKYGPPCPPCPAPEFLGGPSVFLFPPKPKDTLYITREPEVTCVVVDVSQEDPEVQFNWYVDGVEVHNAKTKPREEQFNSTYRVVSVLTVLHQDWLNGKEYKCKVSNKGLPSSIEKTISKAKGQPREPQVYTLPPSQEEMTKNQVSLTCLVKGFYPSDIAVEWESNGQPENNYKTTPPVLDSDGSFFLYSRLTVDKSRWQEGNVFSCSVMHEALHNHYTQKSLSLSLG
chain 2: EIVLTQSPATLSLSPGERATLSCRASESVDNYGMSFMNWFQQKPGQPPKLLIHAASNQGSGVPSRFSGSGSGTDFTLTISSLEPEDFAVYFCQQSKEVPYTFGGGTKVEIKGGGSGGGGQVQLVQSGAEVKKPGASVKVSCKASGYTFTDYNMDWVRQAPGQGLEWMGDINPDNGVTIYNQKFEGRVTMTTDTSTSTAYMELRSLRSDDTAVYYCAREADYFYFDYWGQGTTLTVSSGGCGGGKVAACKEKVAALKEKVAALKEKVAALKE
IC50 [6]: 0.486 µM | IC50 [7]: 1.29 µM | EC50 [8]: 0.532 µM | EC50 [9]: 1.32 µM | IC50 [10]: 0.836 µM

B3: DART H (bispecific antibody)
chain 1: EIVLTQSPATLSLSPGERATLSCRASESVDNYGMSFMNWFQQKPGQPPKLLIHAASNQGSGVPSRFSGSGSGTDFTLTISSLEPEDFAVYFCQQSKEVPYTFGGGTKVEIKGGGSGGGGQVQLVQSGAEVKKPGASVKVSCKASGYTFTNYGMNWVRQAPGQGLEWMGWINTYTGESTYADDFEGRFVFSMDTSASTAYLQISSLKAEDTAVYYCARESLYDYYSMDYWGQGTTVTVSSGGCGGGEVAALEKEVAALEKEVAALEKEVAALEKGGGDKTHTCPPCPAPEAAGGPSVFLFPPKPKDTLMISRTPEVTCVVVDVSHEDPEVKFNWYVDGVEVHNAKTKPREEQYNSTYRVVSVLTVLHQDWLNGKEYKCKVSNKALPAPIEKTISKAKGQPREPQVYTLPPSREEMTKNQVSLWCLVKGFYPSDIAVEWESNGQPENNYKTTPPVLDSDGSFFLYSKLTVDKSRWQQGNVFSCSVMHEALHNHYTQKSLSLSPGK
chain 2: DIVMTQTPLSLSVTPGQPASISCKSSQSLLHSDAKTYLNWLLQKPGQPPERLIYLVSELDSGVPDRFSGSGSGTDFTLKISRVEAEDVGVYYCWQGTHFPYTFGGGTKVEIKGGGSGGGGQVQLVQSGAEVKKPGASVKVSCKASGYSFTSYWMNWVRQAPGQGLEWIGVIHPSDSETWLDQKFKDRVTITVDKSTSTAYMELSSLRSEDTAVYYCAREHYGTSPFAYWGQGTLVTVSSGGCGGGKVAALKEKVAALKEKVAALKEKVAALKE
chain 3: not shown
IC50 [11]: 2.9 µM | EC50 [12]: 2.38 µM | EC50 [13]: 4.53 µM | EC90 [13]: 22.7 µM | IC50 [14]: 3.4 µM | IC50 [15]: 6.21 µM

— patent US12534531 (MacroGenics, dated 2026)
